Measured values taken from patent publication US9814672B2, “Echogenic vehicle for clinical delivery of plasminogen activator and other fibrin-binding therapeutics to thrombi” (priority 2007, dated 2017).

Experiments:
fibrinogen αC domains = biological target: T1, fibrinogen αC domains (Homo sapiens, UniProt P02671); conditions: Tsurupa and Medved 2001; cited from earlier work
T1 sequence (P02671 240-629 limits assumed): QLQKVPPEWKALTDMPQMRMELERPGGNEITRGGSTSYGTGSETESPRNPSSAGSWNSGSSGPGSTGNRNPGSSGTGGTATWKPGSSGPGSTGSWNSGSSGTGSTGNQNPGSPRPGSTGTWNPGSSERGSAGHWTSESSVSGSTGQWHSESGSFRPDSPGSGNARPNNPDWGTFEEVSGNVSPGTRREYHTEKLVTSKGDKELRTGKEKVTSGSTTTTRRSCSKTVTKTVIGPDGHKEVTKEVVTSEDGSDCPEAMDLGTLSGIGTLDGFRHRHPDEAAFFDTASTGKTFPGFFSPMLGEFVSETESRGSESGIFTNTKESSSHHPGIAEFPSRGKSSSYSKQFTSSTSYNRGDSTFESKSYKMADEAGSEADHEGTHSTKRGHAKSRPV

fibrin = biological target: T2, fibrin (Homo sapiens, UniProt P02671+P02675+P02679); experiment: Two-stage fibrin pad ELISA, Scatchard and van't Hoff analysis; conditions: undiluted fresh-frozen rabbit serum, 37° C.; read-out: binding affinity (KD) in serum
T2 construct: were incubated on replicate fibrin pads, prepared in microplate wells; purchased Calbiochem (EMD Biosciences, Inc., La Jolla, Calif.)
T2 sequence (P02671 36-629 limits assumed): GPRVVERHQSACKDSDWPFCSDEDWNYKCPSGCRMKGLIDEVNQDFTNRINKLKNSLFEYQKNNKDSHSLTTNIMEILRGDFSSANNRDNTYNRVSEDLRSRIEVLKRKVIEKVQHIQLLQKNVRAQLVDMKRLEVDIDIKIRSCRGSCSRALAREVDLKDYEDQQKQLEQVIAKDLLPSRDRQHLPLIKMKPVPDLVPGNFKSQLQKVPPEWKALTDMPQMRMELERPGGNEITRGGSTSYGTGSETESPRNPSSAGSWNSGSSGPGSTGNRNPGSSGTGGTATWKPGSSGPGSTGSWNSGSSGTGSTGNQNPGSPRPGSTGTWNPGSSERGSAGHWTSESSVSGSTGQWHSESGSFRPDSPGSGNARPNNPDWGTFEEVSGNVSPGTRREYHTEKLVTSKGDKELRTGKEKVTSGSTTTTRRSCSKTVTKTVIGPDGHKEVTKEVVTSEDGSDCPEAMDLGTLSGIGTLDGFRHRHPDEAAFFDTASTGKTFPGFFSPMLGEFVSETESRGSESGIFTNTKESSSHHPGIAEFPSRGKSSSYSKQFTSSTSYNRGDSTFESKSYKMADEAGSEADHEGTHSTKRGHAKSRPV
T2 sequence (P02675 45-491 limits assumed): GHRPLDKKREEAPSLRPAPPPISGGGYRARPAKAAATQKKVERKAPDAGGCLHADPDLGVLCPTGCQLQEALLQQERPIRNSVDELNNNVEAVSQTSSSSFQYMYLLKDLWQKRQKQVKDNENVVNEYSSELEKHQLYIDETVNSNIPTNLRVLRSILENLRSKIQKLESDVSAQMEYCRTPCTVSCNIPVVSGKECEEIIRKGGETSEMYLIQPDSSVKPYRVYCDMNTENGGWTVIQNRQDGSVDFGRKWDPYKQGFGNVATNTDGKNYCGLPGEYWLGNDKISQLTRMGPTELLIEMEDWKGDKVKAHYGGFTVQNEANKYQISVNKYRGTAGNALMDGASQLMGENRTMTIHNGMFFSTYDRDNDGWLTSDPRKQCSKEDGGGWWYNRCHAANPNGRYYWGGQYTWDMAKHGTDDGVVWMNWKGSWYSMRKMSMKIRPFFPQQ
T2 sequence (P02679 27-437 isoform P02679-2 limits assumed): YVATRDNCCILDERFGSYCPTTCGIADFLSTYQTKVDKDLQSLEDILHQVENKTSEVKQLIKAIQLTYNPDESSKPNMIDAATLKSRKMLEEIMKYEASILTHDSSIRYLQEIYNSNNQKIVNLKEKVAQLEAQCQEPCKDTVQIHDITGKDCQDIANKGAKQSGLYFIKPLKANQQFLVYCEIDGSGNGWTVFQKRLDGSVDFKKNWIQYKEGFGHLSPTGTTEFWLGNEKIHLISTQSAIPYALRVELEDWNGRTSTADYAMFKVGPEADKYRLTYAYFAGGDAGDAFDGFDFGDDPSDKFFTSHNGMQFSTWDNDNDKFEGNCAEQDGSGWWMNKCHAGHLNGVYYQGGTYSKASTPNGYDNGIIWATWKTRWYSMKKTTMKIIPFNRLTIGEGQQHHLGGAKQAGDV

Kd (fibrin) | Substance | Kd (fibrinogen αC domains)
 | tPA: Recombinant tissue-plasminogen activator (Activase®, Genentech Inc.), used as the thrombolytic agent [reference compound] | 0.033 ± 0.005 µM
0.00952 µM | tPA(P): Human recombinant tPA (Activase®) irreversibly inhibited with D-phe-L-pro-L-arg-chloromethyl ketone (PPACK) | 
